Data published in article PMC11089504 (Journal of medicinal chemistry, 2024).

Columns and labels:
A. castellanii CYP51 = target: T1, A. castellanii CYP51 (Acanthamoeba castellanii, UniProt L8GJB3, V2A); test: A. castellanii CYP51 inhibition assay, reconstituted 1 h enzyme reaction; assay type: biochemical; details: 1 h IC50, 1 h reaction, 0.5 μM P450, 50 μM obtusifoliol
T1 sequence (L8GJB3 1-486 V2A): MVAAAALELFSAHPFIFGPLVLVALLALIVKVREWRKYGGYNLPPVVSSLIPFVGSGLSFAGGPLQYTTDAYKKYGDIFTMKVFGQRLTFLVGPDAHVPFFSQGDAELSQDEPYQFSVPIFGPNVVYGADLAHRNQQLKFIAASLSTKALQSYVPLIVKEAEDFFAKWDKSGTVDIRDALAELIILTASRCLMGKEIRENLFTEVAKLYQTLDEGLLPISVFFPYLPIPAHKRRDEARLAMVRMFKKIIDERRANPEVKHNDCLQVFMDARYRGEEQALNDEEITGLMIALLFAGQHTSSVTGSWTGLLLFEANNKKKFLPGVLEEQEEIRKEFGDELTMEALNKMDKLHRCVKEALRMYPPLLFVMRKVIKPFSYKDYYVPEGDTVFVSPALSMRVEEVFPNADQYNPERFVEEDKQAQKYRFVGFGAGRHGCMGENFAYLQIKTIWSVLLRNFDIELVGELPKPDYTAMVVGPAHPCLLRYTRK
T1 sequence (P00388 2-678 partner): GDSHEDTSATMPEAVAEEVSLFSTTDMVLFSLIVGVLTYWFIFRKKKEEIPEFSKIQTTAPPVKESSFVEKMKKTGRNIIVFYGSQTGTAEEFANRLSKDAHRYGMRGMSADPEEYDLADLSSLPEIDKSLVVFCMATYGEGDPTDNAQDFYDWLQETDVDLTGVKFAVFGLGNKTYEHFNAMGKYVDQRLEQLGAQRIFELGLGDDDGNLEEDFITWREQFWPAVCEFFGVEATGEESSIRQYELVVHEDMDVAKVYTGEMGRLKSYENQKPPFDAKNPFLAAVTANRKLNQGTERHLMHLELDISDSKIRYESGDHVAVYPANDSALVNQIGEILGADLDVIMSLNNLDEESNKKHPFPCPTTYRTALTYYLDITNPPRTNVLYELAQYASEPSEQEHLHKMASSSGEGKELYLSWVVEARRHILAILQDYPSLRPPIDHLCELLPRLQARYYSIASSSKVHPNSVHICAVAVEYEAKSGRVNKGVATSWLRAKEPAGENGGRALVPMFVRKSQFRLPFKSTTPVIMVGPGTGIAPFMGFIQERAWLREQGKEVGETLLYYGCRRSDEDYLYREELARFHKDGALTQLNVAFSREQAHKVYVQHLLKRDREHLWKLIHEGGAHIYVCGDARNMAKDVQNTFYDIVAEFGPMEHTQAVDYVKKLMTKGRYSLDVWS

[1] = test system: C=C(CC[C@@H](C)[C@H]1CC[C@@]2(C)C3=C(CC[C@]12C)[C@@]1(C)CC[C@H](O)[C@@H](C)[C@@H]1CC3)C(C)C; test: purified protein, by the assay type; details: other: 37 °C, 1 min reactions obtusifoliol, 20 min lanosterol
[2] = test system: CC(C)=CCC[C@@H](C)[C@H]1CC[C@@]2(C)C3=C(CC[C@]12C)[C@@]1(C)CC[C@H](O)C(C)(C)[C@@H]1CC3; test: purified protein, by the assay type; details: other: 37 °C, 1 min reactions obtusifoliol, 20 min lanosterol

| Compound | IC50 (A. castellanii CYP51) | Km [1] | kcat [1] | kcat/Km [1] | Km [2] | kcat [2] | kcat/Km [2] |
| --- | --- | --- | --- | --- | --- | --- | --- |
| OC(Cn1cncn1)(Cn1cncn1)c1ccc(F)cc1F [fluconazole] | 71 µM |  |  |  |  |  |  |
| A. castellanii CYP51 (Acanthamoeba castellanii str. Neff; V2A) |  | 2.7 ± 0.3 µM | 0.513 s⁻¹ | 190000 M⁻¹ s⁻¹ | 52 ± 15 µM | 0.102 s⁻¹ | 2000 M⁻¹ s⁻¹ |
